Assay results from article PMC11526172.
Like-named read-outs stand apart in the source and are kept apart here.

B1: dsDNA (145 bp 601, unmodified) (dsDNA)
DNA 1: ATCGATGTATATATCTGACACGTGCCTGGAGACTAGGGAGTAATCCCCTTGGCGGTTAAAACGCGGGGGACAGCGCGTACGTGCGTTTGAGCGGTGCTAGAGCTGTCTACGACCAATTGAGCGGCCTCGGCACCGGGATTCTGAT
DNA 2: ATCAGAATCCCGGTGCCGAGGCCGCTCAATTGGTCGTAGACAGCTCTAGCACCGCTCAAACGCACGTACGCGCTGTCCCCCGCGTTTTAACCGCCAAGGGGATTACTCCCTAGTCTCCAGGCACGTGTCAGATATATACATCGAT
B2: dsDNA-8-oxodGuo-89 (dsDNA)
DNA 1: B1 DNA 1
DNA 2: B1 DNA 2
modifications: 8-oxodGuo at G89 of strand 1
B3: dsDNA-8-oxodGuo-73 (dsDNA)
DNA 1: B1 DNA 1
DNA 2: B1 DNA 2
modifications: 8-oxodGuo at G73 of strand 1
B4: dsDNA-8-oxodGuo-137 (dsDNA)
DNA 1: B1 DNA 1
DNA 2: B1 DNA 2
modifications: 8-oxodGuo at G137 of strand 1

Key:
[1] = target: T1, hOGG1 K249Q (catalytically inactive) (Homo sapiens, UniProt O15527 1-345, K249Q); assay: EMSA
[2] = target: T1, hOGG1 K249Q (catalytically inactive); assay: EMSA; remark: listed apart in the source

T1 sequence (O15527 whole entry K249Q): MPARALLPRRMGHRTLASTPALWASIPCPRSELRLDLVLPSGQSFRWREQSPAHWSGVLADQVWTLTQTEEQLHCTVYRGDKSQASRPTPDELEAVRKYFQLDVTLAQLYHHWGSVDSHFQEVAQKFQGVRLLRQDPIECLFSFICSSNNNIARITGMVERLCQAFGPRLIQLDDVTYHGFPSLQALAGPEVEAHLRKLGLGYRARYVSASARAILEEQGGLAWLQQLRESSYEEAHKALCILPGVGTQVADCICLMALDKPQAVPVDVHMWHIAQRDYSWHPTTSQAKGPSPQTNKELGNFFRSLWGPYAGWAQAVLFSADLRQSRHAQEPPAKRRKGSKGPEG

Binder	Kd [1]	Kd [2]
B1	1310 ± 200 nM	–
B2	–	300 ± 10 nM
B3	–	240 ± 10 nM
B4	–	420 ± 20 nM
